One series addresses T1, mouse IL-22 (mIL-22) (Mus musculus, UniProt Q9JJY9).
T1 sequence (Q9JJY9 34-179): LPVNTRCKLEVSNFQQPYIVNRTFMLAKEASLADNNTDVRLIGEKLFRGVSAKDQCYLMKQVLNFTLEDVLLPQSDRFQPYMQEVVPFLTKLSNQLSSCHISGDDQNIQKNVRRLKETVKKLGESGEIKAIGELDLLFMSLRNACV
In words: Inhibition of mIL-22 induced Stat3 phosphorylation in HepG2 cells. Format: cell-based. Particulars: mAb 6.7 nM. The protocol: One of the immediate functions of IL-22 is inducing phosphorylation of Stat3, a protein in the signaling pathway of IL-22. The 10 antibodies of Table 1 were tested in a cell-based assay for blocking IL-22-dependent phosphorylation of Stat3 through human or mouse IL-22 in HepG2 cells. Antibody hum10 and mutant CPE-LC-E049K were used as controls. Four concentrations of each of the antibodies were used: 0.11 μg/mL, 0.33 μg/mL, 1 μg/mL, and 3 μg/mL.
30,000 human HepG2 cells were seeded in 96 well plates and serum starved overnight. Three-fold dilutions of anti-IL-22 antibodies and control hum10 antibody at concentrations of 0.11 μg/mL, 0.33 μg/mL, 1 μg/mL, and 3 μg/mL were incubated with 200 ng/ml of hIL-22 or mIL-22 at 37° C. for one hour then added to the serum starved human HepG2 cells. The HepG2 cells were incubated with the antibody-IL-22 mixture at 37° C. for 20 minutes. After incubation, HepG2 cells were washed with PBS and lysed. Half of the cell lysate was used to determine the level of phosphorylated Stat3 using Cell Signaling kit #7300 following the vendor's protocol and the other half of the cell lysate was used to determine the level of total Stat3 by Western blot analysis using a Santa Cruz rabbit polyclonal antibody (Sc-7179) against human Stat3.

Another series addresses T2, human IL-22 (Homo sapiens, UniProt Q9GZX6).
T2 sequence (Q9GZX6 34-179): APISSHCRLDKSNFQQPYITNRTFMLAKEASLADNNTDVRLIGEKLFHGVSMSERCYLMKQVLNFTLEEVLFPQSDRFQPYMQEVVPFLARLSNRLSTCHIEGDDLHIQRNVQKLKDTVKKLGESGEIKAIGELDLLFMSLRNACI
The experiment in a line: SPR capture assay, affinity to human IL-22. The note with it: human IL-22, SPR. In kind it is binding. The protocol: (§1) The affinity of the 10 antibodies of Table 1 was measured by Surface Plasma Resonance (SPR) using a capture assay in PBS buffer to generate binding curves at four different concentrations of each antibody (0.05, 0.1, 0.5, and 1.0 μg/ml). The Ka, Kd and KD values for the mutant antibodies were calculated from the curves for each of the antibodies.
(§2) The affinity of the 10 antibodies of Table 1 was measured by Surface Plasma Resonance (SPR) using a capture assay on a SPR-2 instrument (SierraSensiors, Hamburg, Germany). The antigens hIL-22 and mIL-22 were immobilized on chips. The running buffer for the assay contained 10 mM HEPES with a pH of 7.4, 500 mM NaCl, and 0.05% TWEEN® 20. […] The off-rate was measured for 6 minutes. Binding constants were calculated using the curve fitting software Analyzer2 (Sierra Sensors). Sensorgrams were analyzed with the instrument specific software and with BIAevaluation 4.1 software. The binding data were analyzed using the Langmuir 1:1 model (human IL-22) or a model for a heterogeneous ligand ([…]).
(§3) The antibodies were tested at four different concentrations of each antibody: 0.33 nM, 0.67 nM, 3.3 nM, 6.7 nM for hIL-22; 1, 2, […] for mIL-22. Antibody CPE-LC-E049K was used as a control.

A further series in a line: Thermostability. In kind it is physicochemical.
The target in a further series is T3, mouse IL-22 (Mus musculus, UniProt Q9JJY9).
T3 sequence (Q9JJY9 34-179): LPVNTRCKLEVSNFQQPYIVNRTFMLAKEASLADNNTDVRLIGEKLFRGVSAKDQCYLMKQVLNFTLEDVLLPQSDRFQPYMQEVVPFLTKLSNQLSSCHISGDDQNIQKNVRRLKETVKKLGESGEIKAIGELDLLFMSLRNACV
The experiment in a line: SPR capture assay, affinity to mouse IL-22. Format: binding. The note with it: mouse IL-22, SPR. As for the experimental part: as §1, §2, §3

A short description of series [1]: Aggregate formation at 10 mg/mL in PBS. In kind it is physicochemical.

B1: CPS02: mutant anti-IL-22 antibody binding human and mouse IL-22; light chain LC-06, heavy chain HC-08 (antibody, V domains shown)
VH: QVQLVQSGAEVKKPGASVKVSCKASGYIFRSYWIHWIRQPPGKGLEWIGRIYPGTGRTYYNEKFKGRVTISADKSISTAYLQWSSLKASDTAMYYCARSYDSSVAYWGQGTLVTVSS
VL: AIQLTQSPSSLSASVGDRVTITCSASSSVSYMHWYLQKPGQSPQLLIYKTRKLASGVPSRFSGSGSGTDFTFTISSLEAEDAATYYCQQWSSNPYITFGQGTKVEIKR
B1: the “STAT3 Phosphorylation; mIL22 % inhibition” value with mouse IL-22 (mIL-22) is reported as 76.18%. Besides, the ka worked out at 1.87e+06 M·s in the series with human IL-22 and 166000 M·s with mouse IL-22. Besides, the kd in the series with human IL-22 is 4.67e-05 s⁻¹; with mouse IL-22, 0.000545 s⁻¹. In addition, the “Thermostability (% remaining activity 60 min); of duplicate samples” value in “Thermostability” is on record as 104%. Besides, in series [1], the “Aggregate formation at 10 mg/mL in PBS” value is given as “no”.

The values above are taken from patent US11834472B2, “Anti-IL-22 antibodies, antibody fragments, their immunoconjugates and uses thereof” (BioAtla, Inc., priority 2018, dated 2023).
